For three molecules, Kd results are on record in PMC11626796, “Versican binds collagen via its G3 domain and regulates the organization and mechanics of collagenous matrices” (The Journal of Biological Chemistry, 2024).

The labels stand for the following.
B1: Recombinant human versican G3 domain (domain or fragment)
chain: not shown
B2: Recombinant human versican isoform V3 (natural protein)
chain: not shown
notes: Versican isoform V3, human; contains only the N-terminal G1 and C-terminal G3 domains and lacks the GAG domains; also called V3 isoform; source: bought: R&D Systems
B3: Recombinant human versican G1 domain (domain or fragment)
chain: not shown
modifications: Limits taken by convention: mature N-terminus through Ig-like V, Link 1 and Link 2 (Abcam ab152303 limits not given); tag omitted

For this assay, the target named is T1, Rat tail type I telo-collagen (rat, UniProt P02454 152-1207; P02466 86-1125).
T1 construct: Type I collagen alpha-1 chain, rat tail telo-collagen; Type I collagen alpha-2 chain, rat tail telo-collagen; Extracted from tissue; Telopeptides are kept (telo-collagen); also called type I collagen; full-length collagen; source: bought: Corning (rat tail)
T1 sequence (P02454 152-1207, chain 1 of 2): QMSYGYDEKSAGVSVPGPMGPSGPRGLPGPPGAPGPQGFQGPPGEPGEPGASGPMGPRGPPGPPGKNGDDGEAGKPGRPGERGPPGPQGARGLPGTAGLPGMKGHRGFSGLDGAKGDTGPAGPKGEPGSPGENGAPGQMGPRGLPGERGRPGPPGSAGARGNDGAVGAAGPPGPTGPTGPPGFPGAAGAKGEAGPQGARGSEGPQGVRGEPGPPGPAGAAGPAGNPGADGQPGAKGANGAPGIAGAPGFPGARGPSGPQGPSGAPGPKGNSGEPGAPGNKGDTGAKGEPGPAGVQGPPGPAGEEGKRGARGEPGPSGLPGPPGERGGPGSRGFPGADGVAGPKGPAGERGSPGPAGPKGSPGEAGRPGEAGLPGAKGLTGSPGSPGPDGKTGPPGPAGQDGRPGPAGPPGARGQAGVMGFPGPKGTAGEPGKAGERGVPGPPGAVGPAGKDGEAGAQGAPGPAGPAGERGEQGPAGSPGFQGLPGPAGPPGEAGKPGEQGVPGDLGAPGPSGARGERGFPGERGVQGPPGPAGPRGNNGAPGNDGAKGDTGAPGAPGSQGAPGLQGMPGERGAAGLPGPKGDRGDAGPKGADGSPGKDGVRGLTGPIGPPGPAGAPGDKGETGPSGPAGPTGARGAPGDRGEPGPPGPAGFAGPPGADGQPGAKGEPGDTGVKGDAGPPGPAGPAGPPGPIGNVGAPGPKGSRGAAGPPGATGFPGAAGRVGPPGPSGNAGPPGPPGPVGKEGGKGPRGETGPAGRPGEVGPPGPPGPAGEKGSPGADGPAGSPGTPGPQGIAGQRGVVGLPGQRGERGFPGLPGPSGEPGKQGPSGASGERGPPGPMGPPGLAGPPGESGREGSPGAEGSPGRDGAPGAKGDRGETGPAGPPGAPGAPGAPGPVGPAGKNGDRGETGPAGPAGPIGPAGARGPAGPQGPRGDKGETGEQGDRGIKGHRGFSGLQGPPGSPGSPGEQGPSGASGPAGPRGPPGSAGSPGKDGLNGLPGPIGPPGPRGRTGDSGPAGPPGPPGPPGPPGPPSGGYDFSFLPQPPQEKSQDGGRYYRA
T1 sequence (P02466 86-1125, chain 2 of 2): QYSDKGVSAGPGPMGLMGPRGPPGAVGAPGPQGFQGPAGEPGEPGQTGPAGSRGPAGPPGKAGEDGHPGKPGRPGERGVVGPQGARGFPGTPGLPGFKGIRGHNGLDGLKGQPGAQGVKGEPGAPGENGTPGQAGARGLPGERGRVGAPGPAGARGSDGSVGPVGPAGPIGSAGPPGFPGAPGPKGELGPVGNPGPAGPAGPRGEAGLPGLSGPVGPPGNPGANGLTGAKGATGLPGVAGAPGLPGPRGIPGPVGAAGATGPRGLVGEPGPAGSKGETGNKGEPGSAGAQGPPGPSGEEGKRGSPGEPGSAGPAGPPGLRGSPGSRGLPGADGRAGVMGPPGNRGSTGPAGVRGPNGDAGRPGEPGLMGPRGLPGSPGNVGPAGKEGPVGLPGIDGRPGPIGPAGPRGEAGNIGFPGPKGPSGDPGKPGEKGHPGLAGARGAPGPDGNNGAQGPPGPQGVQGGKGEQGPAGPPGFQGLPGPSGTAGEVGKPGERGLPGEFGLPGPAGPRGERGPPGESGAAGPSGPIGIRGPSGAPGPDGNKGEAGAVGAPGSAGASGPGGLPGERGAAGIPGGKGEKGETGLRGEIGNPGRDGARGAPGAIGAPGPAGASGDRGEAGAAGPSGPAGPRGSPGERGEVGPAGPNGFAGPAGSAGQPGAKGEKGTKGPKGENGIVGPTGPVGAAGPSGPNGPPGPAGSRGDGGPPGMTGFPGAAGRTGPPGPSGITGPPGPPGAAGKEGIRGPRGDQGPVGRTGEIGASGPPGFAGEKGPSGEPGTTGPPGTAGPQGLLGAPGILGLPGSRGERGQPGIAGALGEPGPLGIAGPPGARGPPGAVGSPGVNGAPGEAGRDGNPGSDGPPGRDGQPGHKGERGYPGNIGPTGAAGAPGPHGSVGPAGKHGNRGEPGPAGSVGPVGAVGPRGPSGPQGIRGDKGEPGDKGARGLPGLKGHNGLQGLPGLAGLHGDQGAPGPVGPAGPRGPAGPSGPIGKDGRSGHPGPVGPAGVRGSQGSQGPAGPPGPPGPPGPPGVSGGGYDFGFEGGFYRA
The experiment in a line: ELISA; solid-phase binding assay: proteoglycan or versican domain coated on a 96-well plate (0.25 ug/ml; 0.05-1 ug/ml in Fig. 2A) at 4 C overnight, blocked with 3% BSA in TTBS or casein; rat tail type I collagen 0.1-5 ug/ml in 1% BSA/PBS overnight at RT; detected with biotin-conjugated anti-collagen I antibody, streptavidin-HRP and TMB; Kd from Scatchard plot. The settings on record: both partners purified.
On to B1, for which the dissociation constant (Kd) was 3.2 nM. This lies in the single-digit nanomolar range.

Turning to B2, binding was characterised by a dissociation constant (Kd) of 0.7 nM.

B3: binding was put at a Kd of 0.9 nM. The Kd values of the last two molecules are within 1.5-fold of each other.
